Laboratory results from a protein production outcome set (Wang et al. 2014).

Test: label from the status in PepcDB records

| Sequence | protein production |
| --- | --- |
| MWGQMRNRNWRSRALCTVVATSLLALGGPLLSATAAGGPNIAVGDATAASSSHGEYGAANITDGNQGTYWQSGGGSLPQWVQTDLGATERIDEVVLRLPAGWESRDQTLSVQGSADGTGFSTLKTSATYAFDPGSGNTVTIAFPATQTRFVRVDITANTGWQAAQLSELEVHAAGESSVNLAAGRRLTASSSTGAYTPGNGNDGNKATYWESANNALPQWLQADLGSARRVNRVVLRLPDGWPARSQTLKIQASDNGSDFTDLTAAKAYTFDAAGGQSATVTFDAATARYVRVLVTANTGQPAAQISELEVYGPETGDTQAPTTPANLAFTEPATGQIRLTWNESSDDTAVTGYDVYANGDLLTSVAGDVTTYTDTRPAGTTVTYHVRAKDAAGNQSGDSNSVTRRADTGDTQAPTAPSNLALTEPVPGQVKLTWTASTDDRGVTGYDVYADNKLRKSVAGNVTTYTDTQPASANVTYFVRAKDAAGNESGDSNSVFRGGTMDGSNLAVGKPITASSHIHTYVAENANDNSTSTYWEGAAGGYPNTLTLKLGANADVDSVVLKLNPDAGWSRRTQHIEVLGRAQDASGLTSLVAARDYVFDPASGGNSVTIPVGERAADVQLKFTSNTGATAGQVAEFQVIGTPAPNPDLEVTGLTASPGSPVESDEITVSATVRNSGAADAPAGKVAVRLGDTKVATADVPALEAGAQRTVSASLGAREAGSYELSAVADEANEIIEQNETNNTYTRPDPLVVKPVQSSDLVAAAVTTSPSSPAAGDDVTFRVALRNQGTQDSAGGGHPVTLALVDSKGDTVKTLTGTHSGVIAAGSTAPAVSLGTWKAANGSYSLKVTVADDANELPVKRENNTSTQPLFVGRGANMPYDMYEAEDGTVGGGATVVGPNRTIGDIAGEASGRKAVHLDRTGEYVEFTTKADTNTLVTRFSIPDAPGGGGIDATLDVYVDGVMKKALPLTSKYAWLYGAEASPGNSPGAGAPRHIYDEAHIMLGETVPAGSTIRLQKDAANTSDYAIDFVNLEQVSATANPDPAAYAVPAGFTHQDVQNALDKVRMDTSGKLVGVYLPPGDYQTSSKFQVYGKAVKVVGAGPWFTKFHAPTTQDNTDIGFRAEASAKGSTFANFAYFGNYTSRIDGPGKVFDFSNTSDIVIDNIWNEHMVCLYWGANTDRMTIRNSRIRNMFADGINMTNGSTDNLVSNNDARATGDDSFALFSAIDAGGADMKNNLYENLTTTLTWRAAGLAVYGGYNNTFRNIHIADTLVYSGITISSLDFGYPMNGFGTDPTTFENVSIVRAGGHFWGGQTFPGIWVFSASKVFQGIRVNNVDIVDPTYSGIMFQTNYVGGQPQFPIKDTVFTDVSVTGAHKSGDEFDAKSGFGLWANEMPESGQGPAVGEVTFNGLALGDNAVDIRNTTSTFKIIRNP | failed |
| MSFALGQRWISDTESDLGLGTVVALDARTVTLMFAASEENRVYARSDAPVTRVIFNVGDVVDSQQGWSLQVEQVVEDQGVYTYLGTRVDTEESGVALREIFLSNQIRFNKPQDKLFAGQIDRMDNFVLRY | not failed |
| MKSLTPHLLLCSFFTSIAPALGEGFRNKRVAFIPTAAAHEEYTAYVDSARSSWKELGSNITDVDIARMPLRTATEALEQAEIIYLSGGNSFYLLDCLRSTEIDQIIRGRLAEGAILVGESAGAIVCSPNIAYIQPMDRVPDNYSQADYTGLNLVDFFPVPHYLAPPFVKSSKEVVAQHASLPLELMNNAEAVIVEGPQRTKISSEHQ | failed |
| MIRFIGNNRRNLITALILYLLTLVPIYVFLFSNGYLNFYGPNLPLFSGKEVEHLLAASIYNPEYGFSVNDGIYFLYLLIFTSLGIYNIIILYKIFLIITFSITFLLLYTMINKAINIFKISRYKSLSLIIGVLFFLLNPLYLEYVAFNFYNLIWGVIIFSYILIKLIDIVVNDKNVTKLDILKSGIALGFSGLMDPRLYIWGSYILILTFIIVIIIKPRLILKLIKYLSLTYISSLPIIAYIYYLFVYPSLITQASTINAITVPAYRPDTYSYIATWSENSLLFNVFAFINSEWTSIVYAPPSILFYPRTQWWFFPHFGNNSLILLPPGIITYIWLASLYIFFIVAALALFDRKRTLASSLLFIPMLLIISLSAGTNVPIKEFVYLLEIDPSKLPIVGGIFATTFAIPYYAEVMALPFASYLSILGTNYLLNRINKEILKKIAVSIIIVLAVFASWQYFNGTLYPSEVTGSFPGNSISLEGYYYPLNPPPQWVHVMNLLSTSRESVRNVKN | failed |
| SVDDDLYFIPKKKAEKKEEVKQEVKVVVPQKQNTTTVYAAPGSTVVVKDVKGKVRDVDEYNRRYTSRDNNFSMENDTLYIEEKPLNERGEWVNGFEGSQDDYEYAMRIVRFRNPRYAIPVSSPLYWDVVYGLPSWDWNVYDDGLYAYVFPTYTNRLWWDWRWNYPYGASWGFSWGWSSPWYYNSWYYPGYWGGGYWGGYWGYHHHHHHHYYPHYSGHGWGGGYWGGGHGWYGSSRRNPGIHAGRYTNSYGSSRPSRNNYVNSYDRNSRNSYVGNSRQNVRNSANSYRTATRNGSSSGRVVSGSDGVNSVRPNRSAIRTRTGATLSPSQAAGVRPGNSYSRPTEGRGSSYTRPSS | failed |
| MKNFLETIEDMILIINREGRLLYANTAVPKKLGYPHEELMSMHILTITSAGKMAEGEKILAELFAGKKESLPLSLEKKEGTSIPAKARIWQGKWHNEPCLFAIIKDLSKEERASSPPFLEHHHHHH | not failed |
| MEGNQAGSSLDSLIASFNKRIGELQELVIARNMYPASTIPDLSAIDTALSSMELQVQSIKDRLREETEAIPKAKKLIEASLKQQGKLQKMSIYAPSHFPDKATMLNSDLNRCLLQENAKQYEQHSTLSSLKFDEEAAVLPKEKKGRGSPPLWYITVEELNSLSSYMRGRLTLEKVNAAINDMASYAEANAHLIAASKQKLAENLWEKALKLRDIVTEQAVKGKHFFLETDMKGPSLKLDNTGKAILTVLRHLGRISETRIGQNRVIILMKPH | failed |
| MPKTLLIPGLDGSPAAHWQQWWALRDPDALLLDLSDVSRPVPAVWEIEVAGAILQHPGAILVGHSLGAILIARLLAKWPHLKVGGAILVAPAEPRHSDRTESFGPIFEESLGVPAYVVSSRNDPWMSFTQAERLARAWRADVVDLGFAGHINVDSGFGPWPGGVVLRDELARRPVP | failed |
| MSELILVRHGQATPFEKATDRLSALGEQQARAVGAALTAQGVRPTHVLHGSLVRQRRTAELAGEGQTGNEPGWPAPTLDPRLSEFDGDGLVTTLAPLLAQQDAEFGTLATTFREHRDSPERNRHFQRMLEALAAAWQAGTVTHPEVEGWADFRARVRAGLGDVLRLPAGTTAVLFTSGGVIGLAVALALDAPDASALKLNWRVKNGSLTRFTFGGGRLSLDSFNEEGHLTPELRSWR | failed |
| ENPRNVGSLDKTSKNVGTGLVGAPACGDVMKLQIQVDEKGKIVDARFKTFGCGSAIASSSLATEWVKGKTVEEALTIKNTDIAKELCLPPVKLHCSMLAEDAIKAALADYKLKQESK | not failed |
| GPSSSHTVGPMLAANAFLQLLEQKNLFDKTQRVKVELYGSLALTGKGHGTDKAILNGLENKAPETVDPASMIPRMHEILDSNLLNLAGKKEIPFHEATDFLFLQKELLPKHSNGMRFSAFDGNANLLIEQVYYSIGGGFITTEEDFDK | not failed |
| IMDQDGRSMFADGSKVPFERTRLLLQRLAVPLRATPLRVTIVGHTSSGLMPERSDYNGWDLSSDRANSVRQILEREGLPGSHIFAVTGKADSQPLFPDDPSIAANRRVTITLMRESPALP | failed |
| MITFKEFVDYWFEAYASTAVKPSTQKRYRQLLKPALRAIGNKPLNKVKPLDIQNIYIALAGTQSNCTILKLHRLLHEIFKHAQMWEYISDNPVKKVVPPTPELEHHHHHH | not failed |
| MKHAQKYRYFSLLMGLVLLLSACQIGATTKDDNQAATKEATVELNRTTTPTLFFHGYAGTKNSFGSLLHRLEKQGATTQELVLLVKPDGTVVKERGALSGKATNPSVQVLFEDNKNNEWNQTEWIKNTLLYLQKNYQVNKANIVGHSMGGVSGLRYLGTYGQDTSLPKIEKFVSIGAPFNDFIDTSQQQTIETELENGPTEKSSRYLDYQEMINVVPEKLPILLIGGQLSPTDLSDGTVPLSSALAVNALLRQRGTQVTSQIIKGENAQHSQLHENPEVDQLLIEFLWPSKK | failed |
| KDADHIHHLIDQSLIAKGFQEILTNSLTKGAYNELLSKQEDAVPILNKLSEELAFMRPSLAFTGLETVAYNINRRQKNLKLFEWGKVYFKRGTKYNEYNRLSVFITGNQHAESWNTPSKTVDFFDMKAVVVQILEKLHIAVTQVQEIESNPLFSKGVIYKHAGKELVQFGYISQAALKATDVKQEVLFADFNADLLLELYSNKSKYKEIS | not failed |
